Values of other authors in paper PMC10966181.

Target: Tyr159 (UniProt position 159, ISIHVYGANIG)
Assay: kinetics
Conditions: Catalytically active Fe(II)-MDO turning over the substrate 3MPA

Substance	pKa
3-mercaptopropionate dioxygenase (MDO, AvMDO) (Azotobacter vinelandii)	9.2 ± 0.1
3-mercaptopropionate dioxygenase (MDO) H157N variant (Azotobacter vinelandii; H157N)	9.9 ± 0.1
